Results: the Human Domainome abundance scans (Beltran et al. 2025)
± gives the uncertainty stated by the source.

B1: Cytoplasmic polyadenylation element-binding protein 2, residues 513 to 575; numbered along this chain, Q7Z5Q1 (parent)
chain: KRVEVKPYVLDDQMCDECQGARCGGKFAPFFCANVTCLQYYCEFCWANIHSRAGREFHKPLVK

Variants of: B1
Test: abundance fitness (aPCA) (normalised: wild type 0, dead -1); higher = more abundant; growth selection in yeast, the domain comes from the species named
Settings: Homo sapiens

| Variant | abundance fitness |
| --- | --- |
| KRVEVKPYVLDDQMCDECQGARCGGKFAPFFCANVTCLQYYCEFCWANINSRAGREFHKPLVK | -0.827 ± 0.18 |
| KRVEVKPYVLDDQMCDECQGARCGGKFAPFFCANVTCLQYYCEFCWANIQSRAGREFHKPLVK | -0.727 ± 0.094 |
| KRVEVKPYVLDDQMCDECQGARCGGKFAPFFCANVTCLQYYCEFCWANIASRAGREFHKPLVK | -0.674 ± 0.07 |
| KRVEVKPYVLDDQMCDECQGARCGGKFAPFFCANVTCLQYYCEFCWANIKSRAGREFHKPLVK | -0.673 ± 0.082 |
| KRVEVKPYVLDDQMCDECQGARCGGKFAPFFCANVTCLQYYCEFCWANITSRAGREFHKPLVK | -0.742 ± 0.093 |
| KRVEVKPYVLDDQMCDECQGARCGGKFAPFFCANVTCLQYYCEFCWANIWSRAGREFHKPLVK | -0.784 ± 0.093 |
| KRVEVKPYVLDDQMCDECQGARCGGKFAPFFCANVTCLQYYCEFCWANIMSRAGREFHKPLVK | -0.875 ± 0.1 |
| KRVEVKPYVLDDQMCDECQGARCGGKFAPFFCANVTCLQYYCEFCWANIYSRAGREFHKPLVK | -0.806 ± 0.13 |
| KRVEVKPYVLDDQMCDECQGARCGGKFAPFFCANVTCLQYYCEFCWANIFSRAGREFHKPLVK | -0.904 ± 0.11 |
| KRVEVKPYVLDDQMCDECQGARCGGKFAPFFCANVTCLQYYCEFCWANILSRAGREFHKPLVK | -0.965 ± 0.069 |
| KRVEVKPYVLDDQMCDECQGARCGGKFAPFFCANVTCLQYYCEFCWANIRSRAGREFHKPLVK | -0.775 ± 0.064 |
| KRVEVKPYVLDDQMCDECQGARCGGKFAPFFCANVTCLQYYCEFCWANIESRAGREFHKPLVK | -0.546 ± 0.066 |
| KRVEVKPYVLDDQMCDECQGARCGGKFAPFFCANVTCLQYYCEFCWANIGSRAGREFHKPLVK | -0.637 ± 0.05 |
| KRVEVKPYVLDDQMCDECQGARCGGKFAPFFCANVTCLQYYCEFCWANIPSRAGREFHKPLVK | -0.81 ± 0.042 |
| KRVEVKPYVLDDQMCDECQGARCGGKFAPFFCANVTCLQYYCEFCWANIISRAGREFHKPLVK | -0.992 ± 0.18 |
| KRVEVKPYVLDDQMCDECQGARCGGKFAPFFCANVTCLQYYCEFCWANISSRAGREFHKPLVK | -0.723 ± 0.051 |
| KRVEVKPYVLDDQMCDECQGARCGGKFAPFFCANVTCLQYYCEFCWVNIHSRAGREFHKPLVK | -0.192 ± 0.058 |
| KRVEVKPYVLDDQMCDECQGARCGGKFAPFFCANVTCLQYYCEFCWYNIHSRAGREFHKPLVK | -0.114 ± 0.088 |
| KRVEVKPYVLDDQMCDECQGARCGGKFAPFFCANVTCLQYYCEFCWRNIHSRAGREFHKPLVK | -0.041 ± 0.042 |
| KRVEVKPYVLDDQMCDECQGARCGGKFAPFFCANVTCLQYYCEFCWMNIHSRAGREFHKPLVK | 0.019 ± 0.053 |
| KRVEVKPYVLDDQMCDECQGARCGGKFAPFFCANVTCLQYYCEFCWKNIHSRAGREFHKPLVK | 0.091 ± 0.063 |
| KRVEVKPYVLDDQMCDECQGARCGGKFAPFFCANVTCLQYYCEFCWPNIHSRAGREFHKPLVK | -0.175 ± 0.039 |

| Variant | abundance fitness |
| --- | --- |
| KRVEVKPYVLDDQMCDECQGARCGGKFAPFFCANVTCLQYYCEFCWWNIHSRAGREFHKPLVK | -0.133 ± 0.065 |
| KRVEVKPYVLDDQMCDECQGARCGGKFAPFFCANVTCLQYYCEFCWLNIHSRAGREFHKPLVK | -0.18 ± 0.047 |
| KRVEVKPYVLDDQMCDECQGARCGGKFAPFFCANVTCLQYYCEFCWNNIHSRAGREFHKPLVK | 0.127 ± 0.11 |
| KRVEVKPYVLDDQMCDECQGARCGGKFAPFFCANVTCLQYYCEFCWQNIHSRAGREFHKPLVK | -0.01 ± 0.085 |
| KRVEVKPYVLDDQMCDECQGARCGGKFAPFFCANVTCLQYYCEFCWANIHSEAGREFHKPLVK | 0.079 ± 0.045 |
| KRVEVKPYVLDDQMCDECQGARCGGKFAPFFCANVTCLQYYCEFCWANIHSAAGREFHKPLVK | 0 ± 0.045 |
| KRVEVKPYVLDDQMCDECQGARCGGKFAPFFCANVTCLQYYCEFCWANIHSKAGREFHKPLVK | 0.118 ± 0.068 |
| KRVEVKPYVLDDQMCDECQGARCGGKFAPFFCANVTCLQYYCEFCWANIHSCAGREFHKPLVK | -0.077 ± 0.14 |
| KRVEVKPYVLDDQMCDECQGARCGGKFAPFFCANVTCLQYYCEFCWANIHSGAGREFHKPLVK | 0.02 ± 0.034 |
| KRVEVKPYVLDDQMCDECQGARCGGKFAPFFCANVTCLQYYCEFCWANIHSDAGREFHKPLVK | 0.156 ± 0.073 |
| KRVEVKPYVLDDQMCDECQGARCGGKFAPFFCANVTCLQYYCEFCWANIHSIAGREFHKPLVK | 0.029 ± 0.072 |
| KRVEVKPYVLDDQMCDECQGARCGGKFAPFFCANVTCLQYYCEFCWANIHSFAGREFHKPLVK | -0.071 ± 0.084 |
| KRVEVKPYVLDDQMCDECQGARCGGKFAPFFCANVTCLQYYCEFCWAQIHSRAGREFHKPLVK | -0.028 ± 0.052 |
| KRVEVKPYVLDDQMCDECQGARCGGKFAPFFCANVTCLQYYCEFCWAPIHSRAGREFHKPLVK | -0.141 ± 0.054 |
| KRVEVKPYVLDDQMCDECQGARCGGKFAPFFCANVTCLQYYCEFCWAYIHSRAGREFHKPLVK | -0.112 ± 0.05 |
| KRVEVKPYVLDDQMCDECQGARCGGKFAPFFCANVTCLQYYCEFCWAVIHSRAGREFHKPLVK | -0.003 ± 0.061 |
| KRVEVKPYVLDDQMCDECQGARCGGKFAPFFCANVTCLQYYCEFCWAFIHSRAGREFHKPLVK | -0.071 ± 0.047 |
| KRVEVKPYVLDDQMCDECQGARCGGKFAPFFCANVTCLQYYCEFCWAGIHSRAGREFHKPLVK | 0.074 ± 0.059 |
| KRVEVKPYVLDDQMCDECQGARCGGKFAPFFCANVTCLQYYCEFCWAIIHSRAGREFHKPLVK | -0.02 ± 0.047 |
| KRVEVKPYVLDDQMCDECQGARCGGKFAPFFCANVTCLQYYCEFCWAKIHSRAGREFHKPLVK | 0.164 ± 0.081 |
| KRVEVKPYVLDDQMCDECQGARCGGKFAPFFCANVTCLQYYCEFCWAHIHSRAGREFHKPLVK | 0.049 ± 0.047 |
| KRVEVKPYVLDDQMCDECQGARCGGKFAPFFCANVTCLQYYCEFCWAAIHSRAGREFHKPLVK | -0.001 ± 0.046 |

| Variant | abundance fitness |
| --- | --- |
| KRVEVKPYVLDDQMCDECQGARCGGKFAPFFCANVTCLQYYCEFCWAMIHSRAGREFHKPLVK | 0.068 ± 0.071 |
| KRVEVKPYVLDDQMCDECQGARCGGKFAPFFCANVTCLQYYCEFCWATIHSRAGREFHKPLVK | 0.024 ± 0.052 |
| KRVEVKPYVLDDQMCDECQGARCGGKFAPFFCANVTCLQYYCEFCWACIHSRAGREFHKPLVK | -0.033 ± 0.083 |
| KRVEVKPYVLDDQMCDECQGARCGGKFAPFFCANVTCLQYYCEFCWAEIHSRAGREFHKPLVK | 0.104 ± 0.088 |
| KRVEVKPYVLDDQMCDECQGARCGGKFAPFFCANVTCLQYYCEFCWARIHSRAGREFHKPLVK | 0.029 ± 0.045 |
| KRVEVKPYVLDDQMCDECQGARCGGKFAPFFCANVTCLQYYCEFCWASIHSRAGREFHKPLVK | 0.032 ± 0.039 |
| KRVEVKPYVLDDQMCDECQGARCGGKFAPFFCANVTCLQYYCEFCWADIHSRAGREFHKPLVK | 0.007 ± 0.07 |
| KRVEVKPYVLDDQMCDECQGARCGGKFAPFFCANVTCLQYYCEFCWALIHSRAGREFHKPLVK | 0.014 ± 0.043 |
| KRVEVKPYVLDDQMCDECQGARCGGKFAPFFCANVTCLQYYCEFCWANWHSRAGREFHKPLVK | -0.268 ± 0.096 |
| KRVEVKPYVLDDQMCDECQGARCGGKFAPFFCANVTCLQYYCEFCWANPHSRAGREFHKPLVK | -0.43 ± 0.055 |
| KRVEVKPYVLDDQMCDECQGARCGGKFAPFFCANVTCLQYYCEFCWANLHSRAGREFHKPLVK | -0.033 ± 0.04 |
| KRVEVKPYVLDDQMCDECQGARCGGKFAPFFCANVTCLQYYCEFCWANVHSRAGREFHKPLVK | -0.01 ± 0.061 |
| KRVEVKPYVLDDQMCDECQGARCGGKFAPFFCANVTCLQYYCEFCWANCHSRAGREFHKPLVK | -0.443 ± 0.12 |
| KRVEVKPYVLDDQMCDECQGARCGGKFAPFFCANVTCLQYYCEFCWANKHSRAGREFHKPLVK | -0.127 ± 0.07 |
| KRVEVKPYVLDDQMCDECQGARCGGKFAPFFCANVTCLQYYCEFCWANRHSRAGREFHKPLVK | -0.006 ± 0.058 |
| KRVEVKPYVLDDQMCDECQGARCGGKFAPFFCANVTCLQYYCEFCWANGHSRAGREFHKPLVK | -0.284 ± 0.072 |
| KRVEVKPYVLDDQMCDECQGARCGGKFAPFFCANVTCLQYYCEFCWANYHSRAGREFHKPLVK | 0.026 ± 0.051 |
| KRVEVKPYVLDDQMCDECQGARCGGKFAPFFCANVTCLQYYCEFCWANFHSRAGREFHKPLVK | -0.044 ± 0.055 |
| KRVEVKPYVLDDQMCDECQGARCGGKFAPFFCANVTCLQYYCEFCWANAHSRAGREFHKPLVK | 0.017 ± 0.066 |
| KRVEVKPYVLDDQMCDECQGARCGGKFAPFFCANVTCLQYYCEFCWANEHSRAGREFHKPLVK | -0.461 ± 0.23 |
| KRVEVKPYVLDDQMCDECQGARCGGKFAPFFCANVTCLQYYCEFCWANSHSRAGREFHKPLVK | -0.015 ± 0.036 |
| KRVEVKPYVLDDQMCDECQGARCGGKFAPFFCANVTCLQYYCEFCWANDHSRAGREFHKPLVK | -0.186 ± 0.07 |

| Variant | abundance fitness |
| --- | --- |
| KRVEVKPYVLDDQMCDECQGARCGGKFAPFFCANVTCLQYYCEFCWANMHSRAGREFHKPLVK | -0.184 ± 0.1 |
| KRVEVKPYVLDDQMCDECQGARCGGKFAPFFCANVTCLQYYCEFCWANNHSRAGREFHKPLVK | -0.221 ± 0.058 |
| KRVEVKPYVLDDQMCDECQGARCGGKFAPFFCANVTCLQYYCEFCWANTHSRAGREFHKPLVK | -0.139 ± 0.047 |
| KRVEVKPYVLDDQMCDECQGARCGGKFAPFFCANVTCLQYYCEFCWANQHSRAGREFHKPLVK | -0.132 ± 0.067 |
| KRVEVKPYVLDDQMCDECQGARCGGKFAPFFCANVTCLQYYCEFCWANIHRRAGREFHKPLVK | 0.116 ± 0.035 |
| KRVEVKPYVLDDQMCDECQGARCGGKFAPFFCANVTCLQYYCEFCWANIHPRAGREFHKPLVK | -0.118 ± 0.053 |
| KRVEVKPYVLDDQMCDECQGARCGGKFAPFFCANVTCLQYYCEFCWANIHARAGREFHKPLVK | 0.045 ± 0.057 |
| KRVEVKPYVLDDQMCDECQGARCGGKFAPFFCANVTCLQYYCEFCWANIHDRAGREFHKPLVK | 0.174 ± 0.056 |
| KRVEVKPYVLDDQMCDECQGARCGGKFAPFFCANVTCLQYYCEFCWANIHKRAGREFHKPLVK | 0.106 ± 0.066 |
| KRVEVKPYVLDDQMCDECQGARCGGKFAPFFCANVTCLQYYCEFCWANIHGRAGREFHKPLVK | 0.051 ± 0.037 |
| KRVEVKPYVLDDQMCDECQGARCGGKFAPFFCANVTCLQYYCEFCWANIHQRAGREFHKPLVK | 0.102 ± 0.06 |
| KRVEVKPYVLDDQMCDECQGARCGGKFAPFFCANVTCLQYYCEFCWANIHWRAGREFHKPLVK | -0.267 ± 0.054 |
| KRVEVKPYVLDDQMCDECQGARCGGKFAPFFCANVTCLQYYCEFCWANIHMRAGREFHKPLVK | 0.029 ± 0.051 |
| KRVEVKPYVLDDQMCDECQGARCGGKFAPFFCANVTCLQYYCEFCWANIHNRAGREFHKPLVK | 0.091 ± 0.079 |
| KRVEVKPYVLDDQMCDECQGARCGGKFAPFFCANVTCLQYYCEFCWANIHFRAGREFHKPLVK | -0.239 ± 0.065 |
| KRVEVKPYVLDDQMCDECQGARCGGKFAPFFCANVTCLQYYCEFCWANIHVRAGREFHKPLVK | -0.025 ± 0.039 |
| KRVEVKPYVLDDQMCDECQGARCGGKFAPFFCANVTCLQYYCEFCWANIHHRAGREFHKPLVK | -0.054 ± 0.07 |
| KRVEVKPYVLDDQMCDECQGARCGGKFAPFFCANVTCLQYYCEFCWANIHLRAGREFHKPLVK | -0.021 ± 0.041 |
| KRVEVKPYVLDDQMCDECQGARCGGKFAPFFCANVTCLQYYCEFCWANIHTRAGREFHKPLVK | 0.006 ± 0.063 |
